Measured values from PMC7473840, “Identification of a molecular locus for normalizing dysregulated GABA release from interneurons in the Fragile X brain” (Molecular Psychiatry, 2018).

Target: FMRP (mouse cerebellum) (UniProt P35922)
Experiment: anti-FMRP IP, Kv1.2 blot, peptide competition
Conditions: reference: no peptide (control); sites S440,S441

other: reduction of co-IP'd Kv1.2: 75%
Substance: Kv1.2 (from UniProt P63141) 250 μM PhosKv436-457 (pS440/pS441) peptide added
